Literature values in publication PMC4138051.
Like-named read-outs stand apart in the source and are kept apart here.

What was measured:
MLL 1-160 (Homo sapiens) [1] = molecular target: MLL 1-160 (Homo sapiens) (UniProt Q03164)
MLL 1-160 (Homo sapiens) [2] = molecular target: MLL 1-160 (Homo sapiens) (UniProt Q03164); remark: listed apart in the source
[3] = molecular target: MLL MBM2 24-40 (Homo sapiens) (UniProt Q03164)
[4] = molecular target: MLL MBM1 6-13 (Homo sapiens) (UniProt Q03164)

Kd (MLL 1-160 (Homo sapiens) [1]): 1.5 µM | Kd (MLL 1-160 (Homo sapiens) [2]): 0.01 µM | Kd [3]: 1 µM | Kd [4]: 0.056 µM
Substance: menin (from UniProt O00255)
